Results published in US20020009436A1, “Methods and compositions for inhibiting adhesion by microorganisms” (priority 1999, published 2002).

Columns and labels:
Candida albicans = assay: Adhesion of Candida albicans to buccal cells; assay type: cell-based; conditions: 37° C. 60 min, ave ±SE, 5 runs
[1] = test system: S. sobrinus glucosyltransferase; assay: Purified S. sobrinus glucosyltransferase treated with asparaginase; assay type: biochemical
Procedure: Glucosyltransferase activity was detected as described in the art, with some modifications described hereinbelow. Protein samples were mixed with electrophoresis sample buffer and incubated for 1 to 4 h at 37° C. before the gel was run. Nonfixed gels were incubated in 50 mM sodium acetate (pH 5.5) containing 1% vol/vol Triton X-100, 2 % (wt/vol) sucrose, and 0.07% (wt/vol) NaN3 at 37° C. for 24 h. Gels were also incubated in the same buffer with glucan T2000 (2 to 4 mg/ml) or fluorescein isothiocyanate-conjugated glucan T-10 (2 mg/ml) to detect both glucosyltransferases and glucan binding proteins (GBPs). After incubation, the gels were fixed for 30 min in 75% ethanol and rocked on a shaker for 30 min with 0.7% periodic acid in 5% acetic acid. The gels were then shaken for 1 h in 0.2% (wt/vol) sodium metabisulfite in 5% acetic acid. After two additional treatments in sodium metabisulfate and acetic acid, the gels were placed in Schiff's reagent for 0.5 to 1 h. Finally the gels were washed extensively in 45% methanol-45% acetic acid-10% H2O for destaining. In some experiments, purified protein was treated with 100 μg/ml polyphenol oxidase for 1 h, or with asparaginase, before loading on the gel.

[2] = test system: proteolytic activity of the P. gingivalis; assay: Hydrolysis of collagen substrate (azocoll) by P. gingivalis; assay type: cell-based
Text: The asparaginase and polyphenol oxidase thus not only affect the adhesion and/or hemagglutination, but also the proteolytic activity of the P. gingivalis.

S. aureus = assay: Collagen binding assay, S. aureus; assay type: cell-based
Procedure: Wells were filled with 1 mg/ml soluble collagen overnight at 4° C. Control wells were coated with 1% BSA. The protein solutions were removed and permitted to stand at 37° C. for 1 h. A solution of 2% BSA was added to the wells to block unoccupied sites and prevent non-specific binding of bacteria. After 30 min, BSA was removed and the wells were washed once with distilled water. Finally, the bacterial suspensions (100 μl, OD 1.4) were added to the plates and incubated at 37° C. for 2 h. Unbound bacteria were removed by washing the wells three times with PBS containing 0.01% Tween 20. The wells were dried at 37° C. for 30 min and stained with crystal violet for 15 min. Wells were rinsed with distilled water and dried at 37° C. for 2 h. After adding 100 μl of 95% (v/v) ethanol to each well the plates were then shaken to release the stain and a reading of 550 nm was carried out.

Proteus vulgaris = assay: Growth inhibition of Proteus vulgaris; assay type: cell-based
Klebsiella pneumoniae = assay: Growth inhibition of Klebsiella pneumoniae; assay type: cell-based
[3] = test system: "trypsin-like" protease activity of P. gingivalis; assay: Trypsin-like protease activity of P. gingivalis cells (BAPNA); assay type: cell-based; conditions: asparaginase 20 U/ml, polyphenol oxidase 80 U/ml
Procedure: Cell suspensions of P. gingivalis were adjusted up to 1.3 OD at 540 nm in PB. A 100 μl volume of 700 μg/ml BAPNA (benzoyl-DL-arginine-p-nitroanilide) was added to 3 ml of cell suspension. The cells were incubated at 37° C. for different periods of time. The blank contained BAPNA and buffer in the same proportion as P. gingivalis cell suspension. Tubes were centrifuged and the subsequent supernatant was diluted 1:3 and read at 405 nm. Asparaginase and polyphenol oxidase were 20 and 80 U/ml, respectively.

[4] = test system: S. sobrinus 6715 glucan-binding lectin; assay: Aggregation of S. sobrinus with high molecular weight dextran T-2000 (standard rate assay); assay type: cell-based, Streptococcus sobrinus; conditions: cells treated with asparaginase
Procedure: S. sobrinus 6715 was maintained on tryptic soy agar (Difco, Detroit, Mich.) and grown for experiments in Terleckyj's defined medium or tryptic soy broth (TSB) (Difco) pretreated with dextranase (1 mg of enzyme per g dry medium) and invertase (5 mg per g dry medium) for 2 h each in 5% CO2 at 37° C. for 16-18h. Cultures were centrifuged at 12,000×g for 10 min and washed twice with cold phosphate buffered saline (PBS, 20 mM, pH 7.2). Cells were suspended in PBS to an optical density of 0.8 (A540). Cultures grown in TSB were harvested and suspended in PBS and subsequently treated with dextranase for 1 h, followed by washing two times in PBS.
The standard rate assay published by Drake et al. (Drake D. et al. Infect. Immun. 56:1864-1872 (1988)) was used to study the interaction of S. sobrinus 6715 glucan-binding lectin with high molecular weight dextran. Briefly, bacterial suspensions were adjusted to an optical density of 0.75-0.90 in PBS, and 3-ml suspensions were added to test tubes (13×100 mm). Dextran T-2000 was added at a final concentration of 10 1μg/ml and the suspensions were vortexed for 5 sec. Control tubes received PBS. The decrease in optical density was continuously monitored spectrophotometrically for 5 min. Rate constants were obtained from the slopes of first-order plots of ln A/A0 (A=observed optical density; A0 optical density at time zero) versus time in minutes. […]

[5] = test system: Type 1-fimbriated E. coli; assay: Flow cytometric adhesion of type 1-fimbriated E. coli to UECs; assay type: cell-based
Text: Methods for handling polyphenol oxidase and asparaginase and for observing adhesion by microorganisms were generally as described in the previous Examples with variations to adapt these methods to epithelial cells.
The bacteria were labeled intracellularly with the fluorescein dye CFDA-SE. Median fluorescence intensity of the UECs was taken as a measure of the number of bacteria attached to them. In the Figures below, median fluorescence is converted to % adhesion using control conditions (UEC+untreated bacteria) as 100%.

B1: asparaginase: enzyme that catalyzes hydrolysis of the side chain amide group of asparagine to a carboxyl group; E. coli asparaginase (protein, UniProt P00805 23-348, looked up)
L-asparaginase 2: LPNITILATGGTIAGGGDSATKSNYTVGKVGVENLVNAVPQLKDIANVKGEQVVNIGSQDMNDNVWLTLAKKINTDCDKTDGFVITHGTDTMEETAYFLDLTVKCDKPVVMVGAMRPSTSMSADGPFNLYNAVVTAADKASANRGVLVVMNDTVLDGRDVTKTNTTDVATFKSVNYGPLGYIHNGKIDYQRTPARKHTSDTPFDVSKLNELPKVGIVYNYANASDLPAKALVDAGYDGIVSAGVGNGNLYKSVFDTLATAAKTGTAVVRSSRVPTGATTQDAEVDDAKYGFVASGTLNPQKARVLLQLALTQTKDPQQIQQIFNQY
Candida albicans; cells, 20 U/ml, control 9.0 ± 3.5
  Candida/buccal cell: 7.0 ± 2
Candida albicans; cells, 60 U/ml, control 9.0 ± 3.5
  Candida/buccal cell: 4.5 ± 1.5
Candida albicans; hyphae, 20 U/ml, control 5.1 ± 3.1
  Candida/buccal cell: 3.1 ± 2.0
Candida albicans; hyphae, 60 U/ml, control 5.1 ± 3.1
  Candida/buccal cell: 1.3 ± 1.2
[1]
  binding by the glucosyltransferase to high molecular weight dextrans: reduced binding
[1]; not shown
  activity gel (hydrolysis of sucrose following renaturation of an SDS-PAGE gel): loss of activity
  glucan binding, enhanced chemiluminescence gel: loss of glucan binding
[2]
  hydrolysis of the collagen substrate (azocoll): reduction of the hydrolysis
S. aureus; S. aureus Cowan, untreated 0.47
  Absorbance (collagen): 0.30
S. aureus; S. aureus Wood, untreated 0.40
  Absorbance (collagen): 0.26
Proteus vulgaris
  inhibition of growth of Proteus vulgaris: did not significantly inhibit growth
Klebsiella pneumoniae
  inhibition of growth of Klebsiella pneumoniae: did not significantly inhibit growth
[3]
  trypsin-like activity (BAPNA hydrolysis): diminished
[4]
  ability of cells to aggregate high molecular weight dextrans: reduced
[5]; asparaginase <2 units/ml
  decrease in adhesion to UECs: 13%
[5]; asparaginase >2 units/ml
  decrease in adhesion to UECs: 85-90%
[5]; asparaginase singly, 10 units/ml
  prevention of adhesion to UECs: 90%
[5]; bacteria first incubated with MUMB 50 mM, then polyphenol oxidase 141 units/ml or asparaginase 10 units/ml
  reduction in adhesion to UECs: 50%
[5]; mannopyranoside 50 mM followed by asparaginase 10 units/ml
  increase in adhesion to UECs: 40%
